The chains are these.
B1: LINE1-full (parent)
chain: UACGUAGGUGGUUUUCCCCUGAUAGUGCUAAGGGGGCCUGGAAGUUUGGACUGGGCAGAGCUCAACACAGCGUGGCAAAGUGGCUGUGGCUAGACUGCCUCUCUGGAUUCCUCGUCACUCAGCAGGGCAUCUCUGAGAGAAAUGCC

The variants in this data set derive from B1. Briefly: self-cleavage, relative activity (ratio to wild type); higher = more cleavage; in vitro, sequencing; the parent is a self-cleaving ribozyme.
Turning to A22U G75A, the self-cleavage was 1.
Regarding U23A A117G, the self-cleavage worked out at 2.16.
Turning to A22U A79G, the self-cleavage was 0.96.
Take A22G U102A: the self-cleavage was found to be 1.5.
Take A22G U102C: the self-cleavage came out at 1.04.
Consider A24G C146U, for which the self-cleavage was determined as 1.61.
For the variant U23C C113A, the self-cleavage was found to be 0.4.
On to U23A U47C, for which the self-cleavage came out at 1.88.
The value for U23A A141G was 1.21; that for A22G C71U was 0.55; that for A22G U100C was 1.75.
A22G U100A: the self-cleavage came to 0.98.
A22G G82A: the self-cleavage is 1.94.
Turning to A22G A94G, the self-cleavage was 0.56.
The value for A22G A94U was 0.37; that for A22G A94C was 0.07.
For the variant A24G U39G, the self-cleavage was 0.76.
Consider A24G U39C, for which the self-cleavage was found to be 1.11.
The value for A22G U132G was 1.67; that for U23A U108A was 1.44; that for U23A A124G was 0.94.
Regarding U23A U45A, the self-cleavage worked out at 1.28.
Under A22U U23C stands 0.87.
The value for A24G A65G was 0.3; that for A24G U132C was 1.17; that for A24G U132A was 1.12.
With A22U U87A, the self-cleavage turned out to be 0.1.
A22G G75A: the self-cleavage is 1.13.
Under A22G A142G stands 1.23.
Under A22G U23C stands 0.63; under A24G G33A, 0.35.
Take U23C A136G: the self-cleavage turned out to be 1.27.
In the case of U23A G93A, the self-cleavage amounted to 0.08.
For U23C U85C, the self-cleavage is 0.22.
Under U23C U85A stands 0.07; under A22G G86A, 0.07.
For the variant A24U A79G, the self-cleavage is 0.97.
The value for A22U A31G was 1.04; that for A22G C76U was 1.39.
Regarding A24C U134G, the self-cleavage stood at 1.02.
Take U23C A64G: the self-cleavage is 0.35.
Take A22U U104C: the self-cleavage is 1.31.
On to A22U U104A, for which the self-cleavage was determined as 1.01.
For A22G C66U, the self-cleavage was determined as 0.07.
The value for A24C A79U was 2.24; that for A22G A117C was 2.12; that for U23C U47C was 1.32.
Under A24G A117U stands 1.09; under A24G G54C, 0.72; under A24G G54U, 0.68.
As to A24G G54A, the self-cleavage came to 0.67.
The value for A22U A69U was 0.12; that for A22U G25A was 0.7.
With U23A C98U, the self-cleavage turned out to be 0.26.
As for U23C A57G, the self-cleavage was 1.2.
As to U23C A57U, the self-cleavage came out at 0.18.
As for U23C A121U, the self-cleavage is 0.66.
Turning to U23C A121G, the self-cleavage amounted to 2.
Take A22U A107U: the self-cleavage is 1.96.
Under A22G C37U stands 0.94; under A24U A92U, 0.7.
For A22G A107G, the self-cleavage is 0.82.
With A24U A43G, the self-cleavage is 1.33.
With A22G U119G, the self-cleavage came out at 1.51.
Consider A22G A79G, for which the self-cleavage came to 0.76.
With U23C A138G, the self-cleavage is 1.95.
The value for A22G G72A was 1.94.
Turning to U23A A142G, the self-cleavage was found to be 1.12.
The value for A22U A138C was 0.92.
Take A22U A138G: the self-cleavage amounted to 1.09.
Under A22G U85A stands 0.12.
As to U23C U104C, the self-cleavage turned out to be 1.78.
In the case of U23C U104A, the self-cleavage was found to be 1.14.
As for U23G U109A, the self-cleavage was 1.
For the variant A24G A124G, the self-cleavage was 1.06.
In the case of A22G G127U, the self-cleavage is 1.67.
U23C U91G: the self-cleavage came out at 0.15.
For U23C U91C, the self-cleavage was 1.18.
In the case of A24G A59U, the self-cleavage is 1.17.
On to A24G U109A, for which the self-cleavage was 2.43.
Regarding U23C C118U, the self-cleavage came to 1.81.
For A22U U47C, the self-cleavage was determined as 1.04.
Regarding A22U U47A, the self-cleavage stood at 1.44.
With U23C U108C, the self-cleavage was found to be 1.38.
Under U23C U108A stands 1.33; under U23C G48A, 1.44; under A22G U109C, 1.36.
As to U23C G144A, the self-cleavage amounted to 1.28.
Consider A22U A65G, for which the self-cleavage was 0.14.
As to U23A A129G, the self-cleavage turned out to be 2.15.
Take A22U U100C: the self-cleavage turned out to be 1.54.
With U23A A136G, the self-cleavage was 1.31.
As to U23A A136U, the self-cleavage turned out to be 1.7.
For the variant A22U U62A, the self-cleavage amounted to 0.
With A22G U29C, the self-cleavage stood at 1.42.
As for U23A A30G, the self-cleavage is 2.09.
On to A24U A140U, for which the self-cleavage was 2.
Turning to A22G C133U, the self-cleavage is 0.58.
As to U23A U81A, the self-cleavage turned out to be 1.7.
The value for U23G C90G was 0.03.
Take A22G A59C: the self-cleavage was determined as 1.31.
As to A22G A59U, the self-cleavage came to 0.33.
Under A24G A43U stands 1.54; under A24G A43G, 1.12; under A24C A64U, 0.58.
Under A24C A64G stands 0.64.
Under A22G U143C stands 0.97; under A22G U143A, 1.19; under A24C A142C, 1.13.
For U23C A142U, the self-cleavage was 2.35.
Turning to A24G U87A, the self-cleavage is 0.03.
In the case of A24G U52C, the self-cleavage came to 0.12.
Regarding A22G G35U, the self-cleavage is 0.6.
Take A22U U46A: the self-cleavage came to 1.2.
The value for A24G G106A was 0.78; that for A22U A121G was 1; that for A24U A129U was 1.26.
For the variant A22U U96G, the self-cleavage is 0.53.
For A22U U96A, the self-cleavage came to 0.09.
For A24U A138G, the self-cleavage was 0.94.
For A24G C71U, the self-cleavage turned out to be 1.03.
Under U23C U62C stands 0.04; under A22G A67C, 0.23.
Turning to U23C G122A, the self-cleavage amounted to 1.61.
Regarding A24G A57C, the self-cleavage stood at 0.
For A22G G53U, the self-cleavage was 1.29.
The value for A24G A77U was 1.04; that for A22G A141G was 1.27.
For the variant U23A A57G, the self-cleavage worked out at 0.94.
On to A24G U47A, for which the self-cleavage is 1.44.
With U23C C111U, the self-cleavage is 1.34.
Take A22U G122A: the self-cleavage was 1.19.
The value for U23C U52C was 1.43; that for A22U U91A was 0.3.
The value for A22U U91C was 0.2; that for U23C A117U was 1.75.
U23C A117G: the self-cleavage turned out to be 1.27.
Under A22U A43G stands 1.01; under A22G G49A, 0.84; under A24G C131U, 1.59.
The value for A22U A141G was 1.29.
The value for A24G U96G was 0; that for A24G U96A was 0.11; that for A24G U96C was 0.31.
As for A22G U47C, the self-cleavage amounted to 1.18.
With A22U A24G, the self-cleavage worked out at 1.95.
Regarding U23A U29C, the self-cleavage was found to be 1.02.
Consider U23A U29A, for which the self-cleavage turned out to be 1.24.
Turning to A22G A140G, the self-cleavage amounted to 0.8.
Take A22G A140U: the self-cleavage turned out to be 1.05.
In the case of A22G G54U, the self-cleavage is 0.23.
Under A22G G54A stands 0.75; under A24G G144A, 1.35; under A24G A140G, 1.68.
Regarding A24G A140U, the self-cleavage is 0.9.
Take A22G U108A: the self-cleavage was determined as 1.74.
The value for A24G A138U was 1.43.
As to A22U, the self-cleavage is 1.11.
With U23C A78U, the self-cleavage is 2.06.
The value for U23A U104C was 0.84; that for A24G C51U was 1.68.
For A22G G93A, the self-cleavage is 0.03.
On to U23C C56U, for which the self-cleavage came out at 0.23.
For the variant A22U U143G, the self-cleavage is 1.27.
Under A22G C116U stands 0.24; under A22U U130A, 1.38; under U23A G144A, 1.85.

Source of the values: the RNAGym collection of RNA variant scans (doi:10.7554/elife.90254).
